{
  "source": "paper doi:10.1101/2024.02.21.581285",
  "about": "(bioRxiv, 2024)",
  "proteins": {"B1": {"name": "D. melanogaster copia Gag protein (natural protein)", "chain": "not shown"}},
  "target": "the molecule itself",
  "assay": "cryo-EM structure",
  "data": [
    {"protein": "B1", "values": [
      {"measurement": "stoichiometry N", "value": 540, "unit": "monomers"}
    ]}
  ]
}
